In FireProtDB (doi:10.1021/bi00107a010):

B1: wild type, Q40059 (protein)
chain: MSSMEKKPEGVNIGAGDRQNQKTEWPELVGKSVEEAKKVILQDKPAAQIIVLPVGTIVTMEYRIDRVRLFVDRLDNIAQVPRVG
B2: Subtilisin-chymotrypsin inhibitor-2A wild type, P01053 (protein)
chain: MSSVEKKPEGVNTGAGDRHNLKTEWPELVGKSVEEAKKVILQDKPEAQIIVLPVGTIVTMEYRIDRVRLFVDKLDNIAQVPRVG

settings: Hordeum vulgare; pH 2.2; 25 °C; Thermal; DSC; glycine-HCl 10 mM; reversible: yes; whole UniProt chain shown

**Q.** What does the source list for B1?
**A.** heat capacity change of unfolding: 0.79 kcal/mol/K; unfolding free energy: 1.94 kcal/mol

same assay, conditions: Hordeum vulgare; pH 2.5; 25 °C; Thermal; DSC; glycine-HCl 10 mM; reversible: yes; whole UniProt chain shown

**Q.** For B1, which “heat capacity change of unfolding” value is on record?
**A.** 0.79 kcal/mol/K

**Q.** What about the unfolding free energy of the same protein?
**A.** 2.79 kcal/mol

same assay, conditions: Hordeum vulgare; pH 2.8; 25 °C; Thermal; DSC; glycine-HCl 10 mM; reversible: yes; whole UniProt chain shown

**Q.** With B1 as the protein, how does the “heat capacity change of unfolding” value read?
**A.** 0.79 kcal/mol/K

**Q.** What about the unfolding free energy of the same protein?
**A.** 3.73 kcal/mol

same assay, conditions: Hordeum vulgare; pH 3.2; 25 °C; Thermal; DSC; glycine-HCl 10 mM; reversible: yes; whole UniProt chain shown

**Q.** Which results are given for B1?
**A.** heat capacity change of unfolding: 0.79 kcal/mol/K; unfolding free energy: 5.2 kcal/mol

same assay, conditions: Hordeum vulgare; pH 3.5; 25 °C; Thermal; DSC; glycine-HCl 10 mM; reversible: yes; whole UniProt chain shown

**Q.** For B1, which “heat capacity change of unfolding” value is on record?
**A.** 0.79 kcal/mol/K

**Q.** What about the unfolding free energy of the same protein?
**A.** 6.48 kcal/mol

same assay, conditions: Hordeum vulgare; pH 2.2; Thermal; DSC; glycine-HCl 10 mM; reversible: yes; whole UniProt chain shown

**Q.** Which results are given for B2?
**A.** Tm: 41.6 °C; unfolding enthalpy (calorimetric): 43.5 kcal/mol; unfolding enthalpy (van 't Hoff): 42.3 kcal/mol

same assay, conditions: Hordeum vulgare; pH 2.5; Thermal; DSC; glycine-HCl 10 mM; reversible: yes; whole UniProt chain shown

**Q.** Which Tm does the source give for B2 here?
**A.** 47.2 °C

**Q.** And the “unfolding enthalpy (calorimetric)” value?
**A.** 49.2 kcal/mol

**Q.** What about the “unfolding enthalpy (van 't Hoff)” value of the same protein?
**A.** 45.5 kcal/mol

same assay, conditions: Hordeum vulgare; pH 2.8; Thermal; DSC; glycine-HCl 10 mM; reversible: yes; whole UniProt chain shown

**Q.** Which results are given for B2?
**A.** Tm: 55.2 °C; unfolding enthalpy (calorimetric): 52.8 kcal/mol; unfolding enthalpy (van 't Hoff): 51.1 kcal/mol

same assay, conditions: Hordeum vulgare; pH 3.2; Thermal; DSC; glycine-HCl 10 mM; reversible: yes; whole UniProt chain shown

**Q.** With B2 as the protein, how does the Tm read?
**A.** 64 °C

**Q.** What about the “unfolding enthalpy (calorimetric)” value of the same protein?
**A.** 61 kcal/mol

**Q.** What about the “unfolding enthalpy (van 't Hoff)” value of the same protein?
**A.** 60.8 kcal/mol

same assay, conditions: Hordeum vulgare; pH 3.5; Thermal; DSC; glycine-HCl 10 mM; reversible: yes; whole UniProt chain shown

**Q.** What does the source list for B2?
**A.** Tm: 71 °C; unfolding enthalpy (calorimetric): 67.5 kcal/mol; unfolding enthalpy (van 't Hoff): 68.8 kcal/mol
